± gives the half width of the 95% confidence interval.
Experiments:
[1] = folding stability dG unfold from trypsin proteolysis; higher = more stable
Summary of the method: (§1)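 How resistant each design was to proteolysis was captured as K50, inferred by Bayesian fitting of sequencing counts. Unfolding free energy was then derived relative to a sequence-predicted unfolded-state K50 and a shared folded-state K50, per protease or combined. Digestion used trypsin and chymotrypsin at 11 threefold-diluted concentrations plus a no-protease condition, on mini-proteins under 80 residues without cysteine in a PA-tagged cDNA display construct. Designs were kept only when AlphaFold2 dimer inter-PAE was above 15.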

[2] = folding stability dG unfold from chymotrypsin proteolysis; higher = more stable
Summary of the method: as §1

[3] = folding stability dG unfold (combined trypsin and chymotrypsin); higher = more stable
Summary of the method: as §1

| Sequence | folding stability dG unfold [1] | folding stability dG unfold [2] | folding stability dG unfold [3] |
| --- | --- | --- | --- |
| SMRKVKRKVTLEITIKVPESVLKPIPDADYYTYPFDDKLVKPDAVIPRTVTITGPYTEEEVEKLVKEILSSA [r9_165_JUSTAS] | 0.749 ± 0.2 kcal/mol | -0.613 ± 0.48 kcal/mol | 0.249 ± 0.25 kcal/mol |
| SAGGSAGGSAGGDSVQIEFPDNGMTITINPNNGPISIMEPDGKKKTYPVDSPEEALDAISAGGSAGGSAGGS [r10_849_TrROS] | 0.221 ± 0.027 kcal/mol | 1.42 ± 0.042 kcal/mol | 1.14 ± 0.061 kcal/mol |
| SAGGSAGGSAMLRIRFENGLEIEIPKDMTLEELKKLAEELAEELKKEGKEVEVKIVEIEPVPSAGGSAGGSA [r18_213_TrROS_Hall] | 1.65 ± 0.044 kcal/mol | 2.21 ± 0.029 kcal/mol | 2.03 ± 0.075 kcal/mol |
| SAGGSAGGSADGWVFLVGADVEVEPVPASLLNVPRSVPGEENPYVVKLKEVSFLLVPAKELSAGGSAGGSAG [r3_488_TrMRF] | -0.906 ± 0.39 kcal/mol | 0.734 ± 0.23 kcal/mol | 0.185 ± 0.16 kcal/mol |
| SAGGSAGGSAGGSSSSLTPIGSSEKLEKLPDSSLRLVTTTTYRDPVTGETSTTTTVTLTDSAGGSAGGSAGG [r7_546_JUSTAS] | -0.46 ± 0.091 kcal/mol | 0.861 ± 0.045 kcal/mol | 0.487 ± 0.052 kcal/mol |
| SAGGSAGGSAKPNNAELVKVTYDPETGDFYAFYKIKNTDTVYVLRFNKDGTVEVKEYKFSEASAGGSAGGSA [r18_521_TrMRF] | 2.96 ± 0.21 kcal/mol | 3.96 ± 0.08 kcal/mol | 3.68 ± 0.17 kcal/mol |
| SAGGSAGGSAGGMRKYLVTLKPPNGPVTRYILPSEEEIKEFVAPLNAEYEVTPLSEDVPPSAGGSAGGSAGG [r7_456_JUSTAS] | 0.0557 ± 0.1 kcal/mol | 0.72 ± 0.072 kcal/mol | 0.515 ± 0.088 kcal/mol |
| SAGSLELPPGVSEVVYDPSSGVYSVRYPDGTLVQVDVLYEPDPFVDELHPVAFVSVYSPTSLLATAPLNSAG [r5_109_TrMRF] | 0.821 ± 0.019 kcal/mol | 1.07 ± 0.11 kcal/mol | 0.979 ± 0.067 kcal/mol |
| SAGGSAGGSPWKKVKFKFMFPFPNYYVRISIEIWVNPGDNEIMIEMSIEIFPIPPGDNKAFKDSAGGSAGGS [r12_885_TrROS] | 2.79 ± 0.24 kcal/mol | 3.9 ± 0.11 kcal/mol | 3.31 ± 0.36 kcal/mol |
| SMREIPPEDLKKAANAYLNGDKEKVEQLFKDAGFKKVVLEEVEGDGEVLFVALVEHPDGPTVLTVSSSDFSA [r9_783_TrMRF] | 0.7 ± 0.064 kcal/mol | 1.33 ± 0.1 kcal/mol | 1.04 ± 0.25 kcal/mol |
| SAGGSAGGSAGGMEKLSETVTETVEVTLTSGDKTYTFTVTTTTVVLPDGTVETLEVTLQPSAGGSAGGSAGG [r11_95_JUSTAS] | 2.05 ± 0.1 kcal/mol | 3.42 ± 0.12 kcal/mol | 2.81 ± 0.14 kcal/mol |
| SAGGSAGGSAGGSGDPNNPVTLLVLDVPSPEPAGTVYYFPDGYVAVNFPSINRTLVFYGSAGGSAGGSAGGS [r4_78_TrMRF] | 0.766 ± 0.036 kcal/mol | 1.42 ± 0.15 kcal/mol | 1.2 ± 0.17 kcal/mol |
| SAGGSAGGSAMTVSIPPEVITSVEYDPSTNKVTITPSDGSVKTYDVESPEEVFKANNIGPESAGGSAGGSAG [r3_34_JUSTAS] | 0.887 ± 0.044 kcal/mol | 0.648 ± 0.11 kcal/mol | 0.753 ± 0.095 kcal/mol |
| SAGGMKPGEKVLVKITLKKEVFKNENGEEVKVEEKEILIELEVDSLEEALEALKKLLPPGAEIEVLPSAGGS [r16_282_TrROS_Hall] | 3.52 ± 0.13 kcal/mol | 3.1 ± 0.047 kcal/mol | 3.24 ± 0.13 kcal/mol |
| SAGGSAGGSGMTAEEAREKKVAELKAQGYTPVKVEVVETRTDPATGKVTTKIKIEYKSPKGLTSAGGSAGGS [r20_46_JUSTAS] | 0.0908 ± 0.081 kcal/mol | 0.333 ± 0.12 kcal/mol | 0.275 ± 0.14 kcal/mol |
| SAGGSAGGSAGMTLTVTSPSSDTPIGTIELPSSLSEEELEAAVEAVRAALPPDVTVEVTGSAGGSAGGSAGG [r11_1081_JUSTAS] | 1.41 ± 0.084 kcal/mol | 0.954 ± 0.046 kcal/mol | 1.13 ± 0.093 kcal/mol |
| SPVKWGEEKTYTYPFPDNPNYRIKIKVHVYKDPENGRPYVRMNIEVYNNGKPRKYNINMPVDQLKDLLQFSA [r9_71_TrROS] | 2.22 ± 0.039 kcal/mol | 2.66 ± 0.076 kcal/mol | 2.57 ± 0.21 kcal/mol |
| SAGGSAGGSKTIVITIEPNVKTPEQLLELLKKIRELSKPGEKIVIIASPEVLEALKKAGLIEESAGGSAGGS [r12_992_TrROS_Hall] | 3.2 ± 0.16 kcal/mol | 3.7 ± 0.086 kcal/mol | 3.49 ± 0.097 kcal/mol |
| SAGGGPSMTITVTVSSSELTSGSGPGPLTPEDVAKRLEAELPPGNVTVTVVEVDPATGEVTVRIEVESAGGS [r16_284_JUSTAS] | 1.17 ± 0.064 kcal/mol | 1.1 ± 0.034 kcal/mol | 1.17 ± 0.077 kcal/mol |
| SPVKIRIIVPKGMDPEMANFIVKEIMKHLGLPPGAPVEILPWEDLQKNPDVHQALEEAEKEGADIVILIRSA [r9_1147_TrROS] | 3.08 ± 0.14 kcal/mol | 4.16 ± 0.16 kcal/mol | 3.84 ± 0.1 kcal/mol |
| SAGGSAGGSAGKPKKPKLVKVKITLPNGEKKEIITEDVEEVIKEINEEFGAIKIEVEEIKSAGGSAGGSAGG [r17_508_TrMRF] | 2.68 ± 0.12 kcal/mol | 2.8 ± 0.14 kcal/mol | 2.76 ± 0.17 kcal/mol |

| Sequence | folding stability dG unfold [1] | folding stability dG unfold [2] | folding stability dG unfold [3] |
| --- | --- | --- | --- |
| SAGGSAGGSMVKVEVTTTYDPSSNKTTVTTTTTLTEGGGTVLGTKTTTTTTTISPTTPVTSVTSAGGSAGGS [r12_254_JUSTAS] | 0.604 ± 0.031 kcal/mol | 1.17 ± 0.015 kcal/mol | 0.955 ± 0.042 kcal/mol |
| SAGGSMSAEELREKIAADPRISLDDVTVTVTRTPDSVTVTVTLKDPNDPVYVEAEERARALFAELASAGGSA [r2_3_JUSTAS] | 0.704 ± 0.024 kcal/mol | -1 ± 0.24 kcal/mol | 0.16 ± 0.049 kcal/mol |
| SAGGSAGGSAGPGVLILRRRFVRPRLIPNTGKLYYEEVELTTNLPIGPIPPNWLNNPNGVSAGGSAGGSAGG [r17_493_TrMRF] | -0.0517 ± 0.15 kcal/mol | 0.0547 ± 0.11 kcal/mol | 0.0971 ± 0.14 kcal/mol |
| SAGGSAGGSAGASPSVPFTVKVTIKSPNGLSTKTISLSSLEDLEALPLPNVVEIEITPLSSAGGSAGGSAGG [r17_290_JUSTAS] | 1.04 ± 0.049 kcal/mol | 0.78 ± 0.14 kcal/mol | 0.907 ± 0.14 kcal/mol |
| SAGMTIEELRSLPPGARVTSVEYDEETEEVTVTVERTREDGKTETLTLTFRSREELEAALKAGADRIVFSAG [r5_905_TrROS_Hall] | 1.731 ± 0.017 kcal/mol | 1.16 ± 0.059 kcal/mol | 1.54 ± 0.052 kcal/mol |
| SAPLSEEEARQLLEEVAEELERETGASYRVELFRDPATGRWFGRIELPDGRVYTVTYDPATGEVTVTVEASA [r9_9_JUSTAS] | 4.25 ± 0.1 kcal/mol | 5.62 ± 0.069 kcal/mol | 5.62 ± 0.11 kcal/mol |
| SAGGSAGGMTTTEISTKKLPDGTWATTVTTTTITATNGVPVTTSTPTTIINPGDPSVAIAAALSSAGGSAGG [r6_129_JUSTAS] | 0.209 ± 0.013 kcal/mol | -1 ± 0.29 kcal/mol | -0.173 ± 0.057 kcal/mol |
| SIEIYEGPEEAEEMAEENGTPVIPIPPDMNLSEILKQLKNQPGLPPDQKIVIVIQWEPGQWYVIRIPIKPSA [r9_314_TrROS] | 2.05 ± 0.059 kcal/mol | 2.734 ± 0.022 kcal/mol | 2.53 ± 0.091 kcal/mol |
| SAGGSAGGSANAKIPDGQKVTLDFRVMIMMRMWQFDENGGKMEPRMMMIPIEVEIEIKIPPNASAGGSAGGS [r12_668_TrROS] | 3.46 ± 0.1 kcal/mol | 5.06 ± 0.14 kcal/mol | 4.71 ± 0.14 kcal/mol |
| SAGMVTYTVTVPYAPAGKRVRVTLFDEGKEIASFEGVENAPYNQTFTFTAPPFTIRIEYEDGSVDPLPASAG [r5_646_TrMRF] | 3.32 ± 0.27 kcal/mol | 4.05 ± 0.058 kcal/mol | 3.57 ± 0.23 kcal/mol |
| SAGGGPDEVSEVKVSSTTTDPATGKTYTVDTTTVTTPGTVTTNTTYTVHDPVTGAVTTETTTTTTPPGSAGG [r13_206_JUSTAS] | 0.583 ± 0.034 kcal/mol | 0.481 ± 0.075 kcal/mol | 0.59 ± 0.045 kcal/mol |
| SAGGSAGGEVKTIEIEIEITDEDGRKYRIKMEAEVLPNGEIIIRMEIEDEETNETYEMTIVLKPSAGGSAGG [r6_726_TrROS_Hall] | 3.57 ± 0.19 kcal/mol | 4.55 ± 0.12 kcal/mol | 4.35 ± 0.18 kcal/mol |
| SAGGSAGGSAGGMIAVLTYKDGTVRDFGPTASLEEILSIPADEIVRIEVRPVLPELGDLLSAGGSAGGSAGG [r7_190_TrMRF] | 0.59 ± 0.018 kcal/mol | -0.859 ± 0.31 kcal/mol | 0.251 ± 0.07 kcal/mol |
| SAGGEVLIDTGPSPEEALYRAYEKGGEVPVIVLEPGSRVLHIFNVRFNPIPKKVEILDEYEIPILPELSAGG [r13_309_TrMRF] | 1.18 ± 0.025 kcal/mol | 1.46 ± 0.087 kcal/mol | 1.38 ± 0.11 kcal/mol |
| SAGMEITTVTLPDGTKLITITLPVPGGPSITADVPYDPATGKVTLLKITGEDPALEALAKEAVEKLKKESAG [r5_266_JUSTAS] | 0.68 ± 0.032 kcal/mol | 1.17 ± 0.053 kcal/mol | 1.09 ± 0.11 kcal/mol |
| SAGGSAGGSAPMVLLLEFDSPEEATEAAKKIAEEFEKLGAKVEVEIFKPPEDKYLVLIRIDSAGGSAGGSAG [r3_211_TrMRF] | 3.66 ± 0.38 kcal/mol | 3.91 ± 0.12 kcal/mol | 3.89 ± 0.21 kcal/mol |
| SAGGSAGGSAGGSKIEIEEENGELKITIEVDGKKYEITIPKDMTLEEALKKALEKLPGLSAGGSAGGSAGGS [r4_191_TrROS_Hall] | 3.45 ± 0.69 kcal/mol | 2.5 ± 0.087 kcal/mol | 3.09 ± 0.18 kcal/mol |
| SAGGMKLVVTKVGEDDNTEYYLITDPGSAEAIREAIKKLVPKDLPYKVTVLSYDPATGTYTVLVEVKRSAGG [r13_491_JUSTAS] | 2.91 ± 0.13 kcal/mol | 3.67 ± 0.039 kcal/mol | 3.44 ± 0.11 kcal/mol |
| SAGGDPIEDIVKEIAEEHGYPIKNVEVEPVDPNTLVVEVQMPNGYRIKIEIPYDPDGDLNINVEWEPSAGGS [r8_284_TrROS] | 1.13 ± 0.11 kcal/mol | 2.04 ± 0.045 kcal/mol | 1.65 ± 0.23 kcal/mol |
| SAGGMPKLTVTITFEPPDGSTTTTRDFTSVEEAIEALRAVPDIPVEPLEDDVIRARRPDSETTVTIVESAGG [r13_143_JUSTAS] | 0.192 ± 0.07 kcal/mol | -0.796 ± 0.24 kcal/mol | -0.171 ± 0.11 kcal/mol |
| SAGGSAGGSAGGSPKRVTMYFIIPFYILIPKEDADGNNEWVIIPITIIIKIEIELPPGDSAGGSAGGSAGGS [r4_326_TrROS] | 4.5 ± 0.15 kcal/mol | 5.49 ± 0.14 kcal/mol | 5.48 ± 0.19 kcal/mol |

Reference: the supplement of paper PMC12764529
